Patent publication EP3145530B1

How the values were obtained:
[1] = biological target: TRAIL-R2/DR5 (human) (UniProt O14763); assay: cell-based or functional assay
[2] = biological target: TRAIL-R1/DR4 (human) (UniProt O00220); assay: cell-based or functional assay
Chain of UniProt O00220 (O00220 24-468): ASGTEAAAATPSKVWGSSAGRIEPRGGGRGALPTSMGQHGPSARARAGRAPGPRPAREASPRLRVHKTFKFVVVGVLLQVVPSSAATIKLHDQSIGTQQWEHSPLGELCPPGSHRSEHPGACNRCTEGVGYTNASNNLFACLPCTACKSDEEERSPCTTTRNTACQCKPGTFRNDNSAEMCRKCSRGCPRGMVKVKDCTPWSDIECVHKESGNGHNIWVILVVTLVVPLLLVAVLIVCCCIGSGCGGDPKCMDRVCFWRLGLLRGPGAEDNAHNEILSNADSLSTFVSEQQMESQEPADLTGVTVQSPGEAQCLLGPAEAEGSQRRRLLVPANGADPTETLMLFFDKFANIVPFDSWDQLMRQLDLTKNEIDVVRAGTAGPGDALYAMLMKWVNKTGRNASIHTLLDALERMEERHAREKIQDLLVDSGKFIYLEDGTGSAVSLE

Chain of UniProt O14763 (O14763 56-440): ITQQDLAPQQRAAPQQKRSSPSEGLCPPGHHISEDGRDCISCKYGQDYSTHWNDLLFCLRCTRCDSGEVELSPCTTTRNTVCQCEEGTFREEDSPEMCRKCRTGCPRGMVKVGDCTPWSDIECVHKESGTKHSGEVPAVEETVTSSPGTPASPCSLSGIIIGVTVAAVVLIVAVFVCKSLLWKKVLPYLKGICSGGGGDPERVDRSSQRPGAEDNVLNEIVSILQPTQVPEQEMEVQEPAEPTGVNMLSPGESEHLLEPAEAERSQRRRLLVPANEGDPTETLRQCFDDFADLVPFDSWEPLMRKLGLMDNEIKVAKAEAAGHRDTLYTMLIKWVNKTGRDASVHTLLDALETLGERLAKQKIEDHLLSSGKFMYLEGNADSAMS

TRAIL (TNF-related apoptosis-inducing ligand)
fold increase in induced cell death (MTT, 3 h) of human primary HSCs treated at day 7 versus day 1 [1]: 4.5 fold | fold increase in induced cell death (MTT, 3 h) of human primary HSCs treated at day 14 versus day 1 [1]: 7.5 fold | fold increase in induced cell death (MTT, 3 h) of human primary PSCs from day 1 to day 14 [1]: 5.5 fold | fold increase in induced cell death (MTT, 3 h) of human primary HSCs treated at day 7 versus day 1 [2]: 4.5 fold | fold increase in induced cell death (MTT, 3 h) of human primary HSCs treated at day 14 versus day 1 [2]: 7.5 fold | fold increase in induced cell death (MTT, 3 h) of human primary PSCs from day 1 to day 14 [2]: 5.5 fold
